The record followed here is publication PMC7327620.

This assay has as its target Tailless ΔHoc T4 phage capsids (bacteriophage T4) (UniProt P19896). The assay can be described thus: native gel or EMSA; Mal–Hoc mixed with ΔHoc T4 capsids at a series of molar ratios; 22°C for 2 h or overnight (16 h) in PBS with 10 mM MgCl2; 1% agarose, 100 V for 2 h, 1x Tris–Acetate–EDTA; GelCode blue protein stain.

Several values for one entry are separate records, joined by “and”; a condition that tells them apart may be missing. Equal values may be shown once.

For the substance Maltase–SC–St–Hoc fusion (complex), the stoichiometry N (Mal–Hoc per capsid) is 60 to 120 (2×) and 90.
